Experimental data taken from patent US20160015828A1 (AbbVie / Abbott, published 2016).

T1: human DLL3 over-expressed on 293 cells (human, UniProt Q9NYJ7 27-618)
T1 construct: identical extracellular and transmembrane regions; also called hDLL3; Delta-like ligand 3
T1 sequence: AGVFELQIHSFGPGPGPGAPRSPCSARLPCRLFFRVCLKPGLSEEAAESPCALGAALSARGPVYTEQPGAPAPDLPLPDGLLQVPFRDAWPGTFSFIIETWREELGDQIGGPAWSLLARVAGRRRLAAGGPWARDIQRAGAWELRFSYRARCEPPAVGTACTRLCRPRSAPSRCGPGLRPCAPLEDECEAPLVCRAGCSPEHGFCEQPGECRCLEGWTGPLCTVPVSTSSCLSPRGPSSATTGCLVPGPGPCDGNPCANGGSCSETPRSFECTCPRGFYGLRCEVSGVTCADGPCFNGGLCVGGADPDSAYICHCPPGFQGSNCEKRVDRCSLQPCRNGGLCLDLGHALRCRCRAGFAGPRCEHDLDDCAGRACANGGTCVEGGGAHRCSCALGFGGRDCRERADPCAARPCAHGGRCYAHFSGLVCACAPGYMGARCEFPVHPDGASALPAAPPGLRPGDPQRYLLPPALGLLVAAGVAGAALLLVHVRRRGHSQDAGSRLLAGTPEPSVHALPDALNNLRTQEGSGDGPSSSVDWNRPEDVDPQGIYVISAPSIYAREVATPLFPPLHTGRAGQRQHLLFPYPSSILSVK

T2: human DLL3 (UniProt Q9NYJ7 27-492)
T2 chain: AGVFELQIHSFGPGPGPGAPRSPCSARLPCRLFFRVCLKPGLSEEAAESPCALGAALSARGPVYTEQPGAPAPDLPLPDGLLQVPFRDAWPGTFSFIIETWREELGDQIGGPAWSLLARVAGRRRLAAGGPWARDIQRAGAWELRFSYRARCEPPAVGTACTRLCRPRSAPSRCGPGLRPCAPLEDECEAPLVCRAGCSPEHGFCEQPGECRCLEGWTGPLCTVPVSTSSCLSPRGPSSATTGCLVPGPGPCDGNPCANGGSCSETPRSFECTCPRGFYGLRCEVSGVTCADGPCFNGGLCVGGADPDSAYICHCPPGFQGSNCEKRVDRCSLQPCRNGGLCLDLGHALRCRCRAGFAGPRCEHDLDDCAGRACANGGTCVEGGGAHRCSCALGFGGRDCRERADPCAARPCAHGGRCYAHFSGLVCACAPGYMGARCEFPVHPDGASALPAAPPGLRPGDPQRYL

T3: rat DLL3 over-expressed on 293 cells (rat, UniProt O88671 33-589)
T3 construct: whole, on cells
T3 sequence (looked up): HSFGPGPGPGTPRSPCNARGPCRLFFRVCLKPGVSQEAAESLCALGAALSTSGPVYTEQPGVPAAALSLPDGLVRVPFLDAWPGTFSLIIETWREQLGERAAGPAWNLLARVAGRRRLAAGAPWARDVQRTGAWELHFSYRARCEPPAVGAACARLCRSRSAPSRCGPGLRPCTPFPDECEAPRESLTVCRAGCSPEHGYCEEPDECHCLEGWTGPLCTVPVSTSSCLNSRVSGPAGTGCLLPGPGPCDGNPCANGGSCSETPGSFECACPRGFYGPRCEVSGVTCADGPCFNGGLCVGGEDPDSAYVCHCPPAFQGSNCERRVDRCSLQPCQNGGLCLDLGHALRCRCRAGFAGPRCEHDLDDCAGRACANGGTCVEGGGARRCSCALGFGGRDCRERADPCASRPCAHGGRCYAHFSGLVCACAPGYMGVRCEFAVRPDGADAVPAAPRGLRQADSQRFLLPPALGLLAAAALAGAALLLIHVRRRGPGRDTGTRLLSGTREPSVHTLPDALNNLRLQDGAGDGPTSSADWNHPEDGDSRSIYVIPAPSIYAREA


How the values were obtained:
[1] = molecular target: T1, human DLL3 over-expressed on 293 cells; assay: flow cytometry, 293 cells over-expressing human DLL3
Method: (§1) In addition to evaluating the exemplary modulators as set forth above, flow cytometry was performed in order to confirm that selected SC16 antibody modulators can immunospecifically associate with human DLL3 and to determine whether the same antibodies cross-react with cynomolgus, rat and/or murine DLL3. More particularly the exemplary murine antibodies were analyzed by flow cytometry using a FACSCanto II and 293 cells over-expressing murine, rat, cynomolgus or human DLL3. In some cases, exemplary murine modulators were analyzed by flow cytometry using a FACSCanto II and yeast cells displaying cynomolgus DLL3 using the methods described by Cochran et al. (J Immunol Methods. 287 (1-2):147-158 (2004).

human DLL3 [2] = molecular target: T2, human DLL3; assay: SPR (Biacore)
human DLL3 [3] = molecular target: T2, human DLL3; assay: BLI (ForteBio)
[4] = molecular target: T3, rat DLL3 over-expressed on 293 cells; assay: flow cytometry, 293 cells over-expressing rat DLL3
Method: as §1

human DLL3 [5] = molecular target: T2, human DLL3; assay: BLI (ForteBio)

Binder | binding result [1] | Kd (human DLL3 [2]) [nM] | Kd (human DLL3 [3]) [nM] | binding result [4] | Kd (human DLL3 [5]) [nM]
SC16.25 (antibody, V domains shown, murine mAb; V regions only) VH: QVTLKESGPGILQPSQTLSLTCSFSGFSLSTSGMGVGWIRQPSGEGLEWLTDIWWDDNKYYNPSLKSRLTISKDTSSNQVFLNITSVDTADTATYYCARRVNYYYDPYYAMDYWGQGTSVTVSS VL: QIVLTQSPAIMSASPGEKVTMTCSASSSVSYMHWYQQKSGTSPKRWIYDSSKLASGVPARFSGSGSGTSYSLTISSMEAEDAATYYCQQWSSNPLTFGAGTKLELK | binds | 0.2 |  |  | 
SC16.4 (antibody, V domains shown, murine mAb; V regions only) VH: QIQLVQSGPELKKPGETVKISCKASGYTFTDYSMHWVKQAPGKGLKWMGWINTETGEPGYADDFKGRFAFSLETSASTAYLQINNLKNEDTATYFCARYDGYAMDYWGQGTSVTVSS VL: DIQMTQTTSSLSASLGDRVTISCRASQDISNYLNWYQQKPDGTVKLLIYYTSRLHSGVPSRFSGSGSGTDYSLTISNLELEDIATYFCQQGDMLPWTFGGGTKLEIK | binds |  | 0.5 | binds | 
SC16.39 (antibody, V domains shown) VH: EVKLEESGGGLVQFGGSMKLSCAASGFTFSDAWMDWVRQSPEKGLEWVAEIRNKANNHATYYPESVKGRFTISRDDSKSRVYLQMNNLRAEDTGIYYCTGYSSFAYWGQGTLVTVSA VL: DIQMTQTTSSLSASLGDRVTISCRASQDVINYLNWYQQKPDGTVKLLIYYTSRLHSGVPSRFSGSGSRTDYSLTISNLEPEDIATYYCQQYSERPYTFGGGTKLEIK |  |  |  |  | 1
SC16.56 (antibody, V domains shown, murine mAb; V regions only) VH: QIQLVQSGPELKKPGETVKISCKASGYTFTNYGMNWVKQAPGKGLKWMAWINTYTGEPTYADDFKGRFAFSLETSASTASLQIINLKNEDTATYFCARIGDSSPSDYWGQGTTLTVSS VL: SIVMTQTPKFLLVSAGDRVTITCKASQSVSNDVVWYQQKPGQSPKLLIYYASNRYTGVPDRFAGSGYGTDFSFTISTVQAEDLAVYFCQQDYTSPWTFGGGTKLEIR | binds | 1 |  | binds | 
SC16.34 (antibody, V domains shown, murine mAb; V regions only) VH: QIQLVQSGPELKRPGETVKISCKASGYTFTNYGMNWVKQAPGKGLKWMGWINTYTGDPTYADDFKGRFAFSLETSASTAYLQINNLKNEDTATYFCARIGGNSPSDYWGQGTSLTVSS VL: SIVMTQTPKFLLVSAGDRVTITCKASQSVSNDVAWYQQKPGQSPKLLIYYASNRYSGVPDRFTGSGYGTDFTFTISTVQAEDLAVYFCQQDYSSPWTFGGGTKLEIK | binds | 0.2 |  | binds | 
SC16.67 (antibody, V domains shown) VH: EVQLVETGGGLVQPKGSLKLSCAVSAFTFTTYAMNWVRQAPGKGLEWVARIRNKSNNYATYYADSVKDRFTISRDDSQSMLYLQMNNLKIEDTAMYYCVFYYDYVYWGQGTLVTVSA VL: QAVVTQESALTTSPGETVTLTCRSSTGAVTTSNYANWIQEKPDHLFTGLIGGTNNRAPGVPARFSGSLIGDKAALTITGAQTEDEAIYFCGLWYSNHLVFGGGTKLTVL |  |  | 0.5 |  | 
SC16.65 (antibody, V domains shown, murine mAb; V regions only) VH: QVTLKESGPGILQPSQTLSLTCSFSGFSLSTSGMGVGWIRQPSGKGLEWLALIWWDDVKRYNPALKSRLTISKDASSSQVFLKIASVDTADTATYYCARIASYDYDVVYAMDYWGQGTSVSVSS VL: QIVLTQSPALMSASPGEKVTMTCSVTSSVSYMYWYQQKPRSSPKPWIYLTSNLASGVPARFSGSGSGTSYSLTISSVEAEDAATYYCQQWRNNPFTFGSGTKVEIK | binds | 0.9 |  |  | 
SC16.13 (antibody, V domains shown) VH: QVTLKESGPGILQPSQTLSLTCSFSGFSLSTSGMGVGWIRQPSGKGLEWLAHIWWDDVKRYNPALKSRLTISKDTSSSQVFLKIASVDTADTATYYCARIVSFDNDVVSAMDYWGQGTSVTVSS VL: QIVLTQSPALVSASPGEKVTMTCSASSSVSYMYWYQQKPRSSPKPWIYLTSNLASGVPARFSGSGSGTSYSLTISSMEAEDAATYYCQQWRSNPFTFGSGTKLEIK |  | 2 |  |  | 
SC16.10 (antibody, V domains shown, murine mAb; V regions only) VH: QVTLKESGPGILQSSQTLSLTCSFSGFSLSTSGMGVGWIRQPSGKGLEWLAHIWWDDVKRYNPVLKSRLTISKDTSSSQVFLKIASVDTADTATYYCARLVDDLYYFDYWGQGTTLTVSS VL: QIVLTQSPAIMSASLGERVTMTCTASSSVSSSYLHWYQQKPGSSPKLWIYSTSNLASGVPTRFSGSGSGTSYSLTISSMEAEDAATYYCHQYHRSPFTFGSGTKLEIK | binds |  | 4 |  | 
SC16.15 (antibody, V domains shown, murine mAb; V regions only) VH: QVQLQQSGAELAKPGASVKMSCKASGYTFTRYWIHWIKQRPGQGLEWIGYINPTTVYTEFNQNFKDKATLTADKSSTTASMQLSSLTSEDSAVYYCARGGSNFFDYWGQGTTLTVSS VL: DIQMTQSPASLAASVGETVAITCRASENIYYNLAWYQQKQGKSPQLLIYTANSLEDGVPSRFSGSGSGTQYSLKINSMQPEDSATYFCKQAYDVPPTFGGGTKLEIK | binds | 0.5 |  | binds | 
SC16.8 (antibody, V domains shown, murine mAb; V regions only) VH: QAQLQQSGAELVRPGTSVKVSCKASGYAFTNYLIEWVKQRPGQGLEWIGVINPGTGGTNYNENFKGKATLTADKSSSTAYMQLSSLTSDDSAVYFCARSPYDYHEGAMDYWGQGTSVTVSS VL: EIQMTQSPSSMSASLGDRITITCQATQDIVKNLNWYQQKPGKPPSFLIYYAIELAEGVPSRFSGSGSGSDYSLTISNLESEDFADYYCLQFYEFPFTFGAGTKLELK | binds |  | 0.5 | binds | 
SC16.7 (antibody, V domains shown, murine mAb; V regions only) VH: EVQLQQSGPELVKPGASVKISCKASGYSFTGYKMHWVKQSHVKSLEWIGRINPYNGATSYNQNFKDKATLTVDKSSSTAYMDLHSLTSEDSAVYFCARGDYRYDWFAYWGQGTLVTVSA VL: NIMMTQSPSSLAVSAGEKVTMSCKSSQSVLYSSNQKNYLAWYQQKPGQSPKLLIYWASTRESGVPDRFTGSGSGTDFTLTISTVQVEDLAVYYCHQYLSSWTFGGGTKLEIK | binds |  |  |  | 
